# Reference: IntAct's records for PubMed 31515488
# B1: Microtubule-associated tumor suppressor candidate 2 (Homo sapiens), Q5JR59-3 (parent)
# chain: MGHCCCKPYNCLQCLDKTNESALVKEKELSIELANIRDEVAFHTAKCEKLQKEKEELERRFEDEVKRLGWQQQAELQELEERLQLQFEAEMARLQEEHGDQLLSIRCQHQEQVEDLTASHDAALLEMENNHTVAITILQDDHDHKVQELMSTHELEKKELEENFEKLRLSLQDQVDTLTFQSQSLRDRARRFEEALRKNTEEQLEIALAPYQHLEEDMKSLKQVLEMKNQQIHEQEKKILELEKLAEKNIILEEKIQVLQQQNEDLKARIDQNTVVTRQLSEENANLQEYVEKETQEKKRLSRTNEELLWKLQTGDPTSPIKLSPTSPVYRGSSSGPSSPARVSTTPR
# partner: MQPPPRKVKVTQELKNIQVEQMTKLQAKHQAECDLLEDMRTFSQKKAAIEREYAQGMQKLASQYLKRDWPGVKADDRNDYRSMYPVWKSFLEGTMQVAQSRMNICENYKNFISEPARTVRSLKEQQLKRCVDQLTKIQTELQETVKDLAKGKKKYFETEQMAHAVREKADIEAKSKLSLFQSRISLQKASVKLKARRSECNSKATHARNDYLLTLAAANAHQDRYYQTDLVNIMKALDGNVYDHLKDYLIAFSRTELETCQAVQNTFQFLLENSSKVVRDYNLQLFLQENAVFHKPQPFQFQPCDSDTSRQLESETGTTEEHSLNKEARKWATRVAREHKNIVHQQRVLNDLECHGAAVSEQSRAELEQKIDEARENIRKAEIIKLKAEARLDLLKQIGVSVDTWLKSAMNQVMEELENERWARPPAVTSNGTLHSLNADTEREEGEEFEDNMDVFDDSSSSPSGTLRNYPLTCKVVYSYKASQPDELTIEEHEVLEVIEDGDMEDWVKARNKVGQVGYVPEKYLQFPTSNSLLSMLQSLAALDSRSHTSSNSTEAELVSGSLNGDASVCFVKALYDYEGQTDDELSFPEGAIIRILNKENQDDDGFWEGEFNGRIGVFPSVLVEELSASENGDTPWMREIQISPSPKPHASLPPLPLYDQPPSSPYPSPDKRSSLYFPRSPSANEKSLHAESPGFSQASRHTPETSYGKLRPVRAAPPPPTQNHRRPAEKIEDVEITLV
# B2: Serine/threonine-protein phosphatase 6 regulatory ankyrin repeat subunit B (Homo sapiens), Q8N8A2 (parent)
# chain: MAVLKLTDQPPLVQAIFSGDPEEIRMLIHKTEDVNTLDSEKRTPLHVAAFLGDAEIIELLILSGARVNAKDNMWLTPLHRAVASRSEEAVQVLIKHSADVNARDKNWQTPLHVAAANKAVKCAEVIIPLLSSVNVSDRGGRTALHHAALNGHVEMVNLLLAKGANINAFDKKDRRALHWAAYMGHLDVVALLINHGAEVTCKDKKGYTPLHAAASNGQINVVKHLLNLGVEIDEINVYGNTALHIACYNGQDAVVNELIDYGANVNQPNNNGFTPLHFAAASTHGALCLELLVNNGADVNIQSKDGKSPLHMTAVHGRFTRSQTLIQNGGEIDCVDKDGNTPLHVAARYGHELLINTLITSGADTAKCGIHSMFPLHLAALNAHSDCCRKLLSSGFEIDTPDKFGRTCLHAAAAGGNVECIKLLQSSGADFHKKDKCGRTPLHYAAANCHFHCIETLVTTGANVNETDDWGRTALHYAAASDMDRNKTILGNAHDNSEELERARELKEKEATLCLEFLLQNDANPSIRDKEGYNSIHYAAAYGHRQCLELLLERTNSGFEESDSGATKSPLHLAAYNGHHQALEVLLQSLVDLDIRDEKGRTALDLAAFKGHTECVEALINQGASIFVKDNVTKRTPLHASVINGHTLCLRLLLEIADNPEAVDVKDAKGQTPLMLAVAYGHIDAVSLLLEKEANVDTVDILGCTALHRGIMTGHEECVQMLLEQEVSILCKDSRGRTPLHYAAARGHATWLSELLQMALSEEDCCFKDNQGYTPLHWACYNGNENCIEVLLEQKCFRKFIGNPFTPLHCAIINDHGNCASLLLGAIDSSIVSCRDDKGRTPLHAAAFADHVECLQLLLRHSAPVNAVDNSGKTALMMAAENGQAGAVDILVNSAQADLTVKDKDLNTPLHLACSKGHEKCALLILDKIQDESLINEKNNALQTPLHVAARNGLKVVVEELLAKGACVLAVDENASRSNGPRSTPGTAVQKEE
# B3: Myogenin (Homo sapiens), P15173 (parent)
# chain: MELYETSPYFYQEPRFYDGENYLPVHLQGFEPPGYERTELTLSPEAPGPLEDKGLGTPEHCPGQCLPWACKVCKRKSVSVDRRRAATLREKRRLKKVNEAFEALKRSTLLNPNQRLPKVEILRSAIQYIERLQALLSSLNQEERDLRYRGGGGPQPGVPSECSSHSASCSPEWGSALEFSANPGDHLLTADPTDAHNLHSLTSIVDSITVEDVSVAFPDETMPN
# partner: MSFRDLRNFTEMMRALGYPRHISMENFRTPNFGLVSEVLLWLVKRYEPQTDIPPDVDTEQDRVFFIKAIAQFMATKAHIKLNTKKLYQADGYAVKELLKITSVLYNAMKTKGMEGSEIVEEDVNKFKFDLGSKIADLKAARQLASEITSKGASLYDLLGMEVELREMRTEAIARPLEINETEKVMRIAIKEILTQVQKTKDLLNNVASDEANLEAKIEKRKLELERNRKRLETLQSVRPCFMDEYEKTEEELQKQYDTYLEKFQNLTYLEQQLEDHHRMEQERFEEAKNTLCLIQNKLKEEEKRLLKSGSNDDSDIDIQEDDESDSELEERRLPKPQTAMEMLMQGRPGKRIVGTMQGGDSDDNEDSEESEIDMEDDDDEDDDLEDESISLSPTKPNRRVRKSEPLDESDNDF
# B4: Zinc finger protein 165 (Homo sapiens), P49910 (parent)
# chain: MATEPKKAAAQNSPEDEGLLIVKIEEEEFIHGQDTCLQRSELLKQELCRQLFRQFCYQDSPGPREALSRLRELCCQWLKPEIHTKEQILELLVLEQFLTILPGDLQAWVHEHYPESGEEAVTILEDLERGTDEAVLQVQAHEHGQEIFQKKVSPPGPALNVKLQPVETKAHFDSSEPQLLWDCDNESENSRSMPKLEIFEKIESQRIISGRISGYISEASGESQDICKSAGRVKRQWEKESGESQRLSSAQDEGFGKILTHKNTVRGEIISHDGCERRLNLNSNEFTHQKSCKHGTCDQSFKWNSDFINHQIIYAGEKNHQYGKSFKSPKLAKHAAVFSGDKTHQCNECGKAFRHSSKLARHQRIHTGERCYECNECGKSFAESSDLTRHRRIHTGERPFGCKECGRAFNLNSHLIRHQRIHTREKPYECSECGKTFRVSSHLIRHFRIHTGEKPYECSECGRAFSQSSNLSQHQRIHMRENLLM
# partner: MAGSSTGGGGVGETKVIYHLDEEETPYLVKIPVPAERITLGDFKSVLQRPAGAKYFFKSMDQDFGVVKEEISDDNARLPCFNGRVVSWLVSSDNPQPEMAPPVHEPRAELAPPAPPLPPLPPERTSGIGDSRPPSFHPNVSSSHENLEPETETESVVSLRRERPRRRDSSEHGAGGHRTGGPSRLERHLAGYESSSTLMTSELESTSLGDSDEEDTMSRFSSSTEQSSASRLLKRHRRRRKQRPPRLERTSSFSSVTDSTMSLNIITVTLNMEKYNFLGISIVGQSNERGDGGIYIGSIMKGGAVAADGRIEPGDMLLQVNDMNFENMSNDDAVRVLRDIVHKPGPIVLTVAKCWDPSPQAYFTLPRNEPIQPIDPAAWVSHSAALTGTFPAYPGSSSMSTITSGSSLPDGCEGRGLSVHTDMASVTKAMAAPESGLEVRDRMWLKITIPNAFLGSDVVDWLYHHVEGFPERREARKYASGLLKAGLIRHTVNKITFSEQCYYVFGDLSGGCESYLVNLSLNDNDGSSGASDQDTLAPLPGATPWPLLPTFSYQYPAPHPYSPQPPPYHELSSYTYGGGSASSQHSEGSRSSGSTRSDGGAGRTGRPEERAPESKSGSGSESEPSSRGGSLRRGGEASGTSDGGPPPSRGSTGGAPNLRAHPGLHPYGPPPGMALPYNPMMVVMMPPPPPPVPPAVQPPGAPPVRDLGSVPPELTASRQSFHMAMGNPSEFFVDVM
# B5: PDZ and LIM domain protein 3 (Homo sapiens), Q53GG5 (parent)
# chain: MPQTVILPGPAPWGFRLSGGIDFNQPLVITRITPGSKAAAANLCPGDVILAIDGFGTESMTHADAQDRIKAAAHQLCLKIDRGETHLWSPQVSEDGKAHPFKINLESEPQDGNYFEHKHNIRPKPFVIPGRSSGCSTPSGIDCGSGRSTPSSVSTVSTICPGDLKVAAKLAPNIPLEMELPGVKIVHAQFNTPMQLYSDDNIMETLQGQVSTALGETPLMSEPTASVPPESDVYRMLHDNRNEPTQPRQSGSFRVLQGMVDDGSDDRPAGTRSVRAPVTKVHGGSGGAQRMPLCDKCGSGIVGAVVKARDKYRHPECFVCADCNLNLKQKGYFFIEGELYCETHARARTKPPEGYDTVTLYPKA
# B6: STAM-binding protein (Homo sapiens), O95630 (parent)
# chain: MSDHGDVSLPPEDRVRALSQLGSAVEVNEDIPPRRYFRSGVEIIRMASIYSEEGNIEHAFILYNKYITLFIEKLPKHRDYKSAVIPEKKDTVKKLKEIAFPKAEELKAELLKRYTKEYTEYNEEKKKEAEELARNMAIQQELEKEKQRVAQQKQQQLEQEQFHAFEEMIRNQELEKERLKIVQEFGKVDPGLGGPLVPDLEKPSLDVFPTLTVSSIQPSDCHTTVRPAKPPVVDRSLKPGALSNSESIPTIDGLRHVVVPGRLCPQFLQLASANTARGVETCGILCGKLMRNEFTITHVLIPKQSAGSDYCNTENEEELFLIQDQQGLITLGWIHTHPTQTAFLSSVDLHTHCSYQMMLPESVAIVCSPKFQETGFFKLTDHGLEEISSCRQKGFHPHSKDPPLFCSCSHVTVVDRAVTITDLR
# partner: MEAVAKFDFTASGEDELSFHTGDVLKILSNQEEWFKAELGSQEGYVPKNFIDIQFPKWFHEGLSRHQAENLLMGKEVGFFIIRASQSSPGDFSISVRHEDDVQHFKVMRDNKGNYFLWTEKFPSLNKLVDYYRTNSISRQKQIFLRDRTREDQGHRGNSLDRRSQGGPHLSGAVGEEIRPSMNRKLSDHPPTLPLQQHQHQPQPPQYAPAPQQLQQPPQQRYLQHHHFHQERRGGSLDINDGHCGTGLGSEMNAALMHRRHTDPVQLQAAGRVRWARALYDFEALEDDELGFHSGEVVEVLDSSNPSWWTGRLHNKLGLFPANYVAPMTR
# B7: Myogenin (Homo sapiens), P15173 (parent)
# chain: B3 chain
# partner: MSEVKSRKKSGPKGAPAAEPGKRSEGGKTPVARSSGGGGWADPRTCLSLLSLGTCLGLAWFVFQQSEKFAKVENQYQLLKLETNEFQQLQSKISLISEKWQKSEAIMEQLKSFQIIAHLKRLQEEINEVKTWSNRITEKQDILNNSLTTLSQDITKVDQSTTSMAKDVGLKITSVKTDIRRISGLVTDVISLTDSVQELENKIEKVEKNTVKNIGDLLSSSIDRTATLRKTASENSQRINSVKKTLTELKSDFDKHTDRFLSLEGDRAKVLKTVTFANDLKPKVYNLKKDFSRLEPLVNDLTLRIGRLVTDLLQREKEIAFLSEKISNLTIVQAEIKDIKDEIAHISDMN
# Variants of: B1
# Details: with fcsd2_human FCHSD2, O94868
row,Variant,effect of a mutation on the interaction
1,A89V,with no effect

# Variants of: B2
# Details: with wwp2_human WWP2, O00308
# Chain of wwp2_human WWP2, O00308 (O00308 whole entry): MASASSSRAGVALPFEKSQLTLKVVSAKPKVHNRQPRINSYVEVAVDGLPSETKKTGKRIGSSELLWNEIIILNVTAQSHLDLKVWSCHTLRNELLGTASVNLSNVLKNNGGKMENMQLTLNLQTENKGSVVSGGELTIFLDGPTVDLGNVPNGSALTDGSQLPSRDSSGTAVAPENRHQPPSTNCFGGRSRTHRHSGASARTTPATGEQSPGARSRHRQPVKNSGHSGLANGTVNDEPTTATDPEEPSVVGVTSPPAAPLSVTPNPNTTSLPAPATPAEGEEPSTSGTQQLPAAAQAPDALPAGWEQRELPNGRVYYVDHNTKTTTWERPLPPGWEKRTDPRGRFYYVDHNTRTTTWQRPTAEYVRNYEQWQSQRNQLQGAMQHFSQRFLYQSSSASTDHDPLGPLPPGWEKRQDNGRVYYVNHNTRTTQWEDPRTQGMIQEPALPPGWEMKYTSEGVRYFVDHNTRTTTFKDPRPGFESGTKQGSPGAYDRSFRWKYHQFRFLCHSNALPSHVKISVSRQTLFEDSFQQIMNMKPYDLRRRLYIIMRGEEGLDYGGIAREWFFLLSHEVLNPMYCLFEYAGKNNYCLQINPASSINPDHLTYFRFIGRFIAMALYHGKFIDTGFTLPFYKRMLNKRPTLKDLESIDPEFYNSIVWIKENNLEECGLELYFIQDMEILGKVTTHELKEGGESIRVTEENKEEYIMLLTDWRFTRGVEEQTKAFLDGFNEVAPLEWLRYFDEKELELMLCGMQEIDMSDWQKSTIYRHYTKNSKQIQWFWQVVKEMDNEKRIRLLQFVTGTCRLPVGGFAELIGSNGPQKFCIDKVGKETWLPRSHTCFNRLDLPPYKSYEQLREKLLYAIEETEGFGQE
row,Variant,effect of a mutation on the interaction
1,R80W,disrupting interaction strength

# Variants of: B3
# Details: with clua1_human CLUAP1, Q96AJ1
row,Variant,effect of a mutation on the interaction
1,R147C,with no effect
2,P49H,with no effect

# Variants of: B4
# Details: with dvl2_human DVL2, O14641
row,Variant,effect of a mutation on the interaction
1,N347Y,with no effect
2,R69C,with no effect

# Variants of: B5
# Details: with actn2_human ACTN2, P35609
# Chain of actn2_human ACTN2, P35609 (P35609 whole entry): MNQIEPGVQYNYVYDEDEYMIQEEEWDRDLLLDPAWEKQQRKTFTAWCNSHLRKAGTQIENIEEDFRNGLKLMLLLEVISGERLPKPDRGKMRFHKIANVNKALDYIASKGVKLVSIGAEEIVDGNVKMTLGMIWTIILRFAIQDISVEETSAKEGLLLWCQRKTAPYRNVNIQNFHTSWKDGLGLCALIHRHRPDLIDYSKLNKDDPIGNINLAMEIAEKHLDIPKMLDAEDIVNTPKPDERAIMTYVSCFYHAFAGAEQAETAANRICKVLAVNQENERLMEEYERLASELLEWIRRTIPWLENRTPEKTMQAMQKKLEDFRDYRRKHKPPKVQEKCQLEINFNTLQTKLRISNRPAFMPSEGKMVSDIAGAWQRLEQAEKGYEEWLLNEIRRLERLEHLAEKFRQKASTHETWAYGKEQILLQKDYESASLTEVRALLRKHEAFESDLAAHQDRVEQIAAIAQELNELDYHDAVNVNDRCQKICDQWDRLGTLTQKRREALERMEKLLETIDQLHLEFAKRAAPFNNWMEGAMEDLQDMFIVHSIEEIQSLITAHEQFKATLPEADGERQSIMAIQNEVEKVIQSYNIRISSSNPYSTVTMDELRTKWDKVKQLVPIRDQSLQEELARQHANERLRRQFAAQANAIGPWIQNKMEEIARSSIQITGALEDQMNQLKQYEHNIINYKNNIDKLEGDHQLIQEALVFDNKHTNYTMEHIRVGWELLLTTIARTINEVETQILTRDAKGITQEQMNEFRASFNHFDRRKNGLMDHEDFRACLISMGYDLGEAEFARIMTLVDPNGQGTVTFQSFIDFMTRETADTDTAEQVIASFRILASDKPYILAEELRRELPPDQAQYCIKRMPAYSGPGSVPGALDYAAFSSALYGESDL
row,Variant,effect of a mutation on the interaction
1,T279M,with no effect
2,T245I,with no effect

# Variants of: B6
# Details: with grap2_human GRAP2, O75791
row,Variant,effect of a mutation on the interaction
1,Q155H,disrupting interaction strength
2,R255H,with no effect

# Variants of: B7
# Details: with ikip_human IKBIP
row,Variant,effect of a mutation on the interaction
1,A181T,disrupting interaction strength
